{"source": "the DeepSol protein solubility set", "data": [{"assay": "soluble on expression in E. coli; label from the status in PepcDB or PDB records", "values": [{"sequence": "MLLVMRAKQGKKTPKRKSQGVGNTQGQTPGSNDSDWVDQIGQSVSDGTQPDWSWNESAETASAAVSAQEVDPLTEYQVYKQFGYQGKAAESLAAYLDGIPDGEAKPENLIRELLDINLEVGDVDVLADNLQKYGKLILSELLAKYIEQALQRDSNHLRIRVLAEEGLGWGTQEIEKRAEGGSATAASASPPPDAGGKAYEAEEIKRIPIVRGKKDVSGISQEEIGAIAGLVRADQGAKILKDKVSYETASKQYDRAIQTSEKPANLIIDALKLDYQHADIDRFAGHLWKLYQTLGNYGRQVKERMLGWGYSLGYHEVFDDLEKGPNDRQIKDIGMGHGYLPKNIQKFKSQHRDLVLQDSSLINTGSSPADDAVKEVESLLMYGQIEAAMDVLEQAVLKYPDESQLYITLIDIYERTEDWDRLGQFLRVLRERADRLPEEVVMLMSRLLQRMNQNIKKIKRYGK", "soluble on expression in E. coli": "not soluble"}, {"sequence": "MLLYMRFTENFERAKKEALMSLEIALRKGEVDEDIIPLLKKINSIENYFTTSSCSGRISVMEMPHFGDKVNAKWLGKWHREVSLYEVLEAIKKHRSGQLWFLVRSPILHVGAKTLEDAVKLVNLAVSCGFKYSNIKSISNKKLIVEIRSTERMDVLLGENGEIFVGEEYLNKIVEIANDQMRRFKEKLKRLESKINALNR", "soluble on expression in E. coli": "soluble"}, {"sequence": "MLNKLMWLTGKAQEDWIEKILHLRQKIWPDYQRIKNDTLFKLYSHYPLYQWLSHYNGEVVAVINSLPVALDQSLDNLPQEGLNWVLSHLESTTPLTQSNYLAAVSVTVNPAYQRLGLSKLLLNRLKASAQEAQYKALIVPARPSQKENY", "soluble on expression in E. coli": "not soluble"}, {"sequence": "MLNVEPSFAEELRSSGVSLSATYLGSVPVVESINVMVSEMRVQVVSECIQHVAATVGVTAAREINPVVSRVIGEVKKENFPVDINISSKMIKIIKQSRLIQRHPFSFFSFGAQGQKGTDTELMFGYIAKNKDGTDRRCHVVFIEDVHKLIDVLTTAINVNTFDAQANASTSNDGFTVPAPPMRHRSSLHRQSFVSNCRAPTVTEDVVGKVWYHGNLSREDAQALLKTEGDFLVRQSDHTPGKYVLSGRTAENEHKHLILLDNHNRVRTRDRTFSNISELIDYHVNNGMAVRSEGRDRETSLNLIRPVPCPGSDDIE", "soluble on expression in E. coli": "soluble"}, {"sequence": "MLQIEKIVSNKGNDLSLRWNLLKKIDHFQCLTSLTRLNLNDNQIEKLENLETLVNLVFLDVSYNRITKIEGLSELINLEELHLVHNKIITIEGLETNTAMKYLEFGDNRIQKMENLSHLVNLERLFLGANQIRKIEGLDGMAQLKELSLPGNALQIIEGLDTLSGLKSISLAQNGIRKIDGLSGLTNLKSLDLNDNIIEKLENVEQFKGISSLMIRKNKLNCWQDVRQLKKLENLTVLTMEMNPLYSSDYTYRNRVKEILPDVKLLDGFPIFWVQGDPYQPIPEEFYEMGDVYVTSPTFVGHDTGSILAIDCHPSGKKFITCGQKARTSNGLVVVWNAEPVLDKKKASNENVPKLLFQVESQSQSNSCRWSPDGKRFAFGSDDSSVSVWEYVGLINSMGSITGGAQNVERYKECCVLRGHSMEVLTVEWSPNGKYLASGSIDYRIIIYNARKLPDRITVLNDIQLPVKGLSWDPIGKYLASLEGDKKLRFWATDSWQCVKSVTEPFESNIEETMLTRLDWSPDGKYLMTPAAVRSGKPLIKLIQRQTWKSDQFLAGHHKGTTCVRAMPRLIEANLKNGKRMQLTCAAVGSRDKSISIWVFPGTLKPLFVINNIFNHTVMDFAWCGRNLLACSQDGTVKVIHLSESVIGEMISNEAMSDLCYQIYSIRPPRYELTDKEEDESQDSFNLSDLSSSANNASFVTCPEDVLIKRKKLVAAQQSSDIQLTKSMEDNSKENESKNSEKTMMEERNKQIDVRKDGKRRIQPVFCGTTTADPMTSLSSEGKKTVAPPPAKRKALAPAVPAKKGEVDLEDSSDSDDDDEEEEEDMEISDIESVRNKKRKVPATTSQPMLALDLKKPALRPMEPKSLKTQEGTVLMEAPEQQPKLSQHVVDRKGMFVEIDNRWKHGGVETTQIKLIKKKQQTAENEDDMMDGERRVNHECLWMAVLGSPVIIVAANKHNVVLGCGDKCLRVYRTFCGTHIVSLRLDSLPVLIGVTEHAAYALTENGRLSTWNLKLGKAVVTRQPLFDCVEASTDNSLISADVSETGVPLIVFSNGSIFTFNVSLSCWIQAITTNVLGRLTSPISDAQLSCSNGTTNSAGPLVRLLKRMRKQATAPGVAPQVVKAVKESQLEQLLHCAEQLGNPQDYQTMLMLYVETLCEGGSEKKLKNILNDLSRSGAPMQVCGLRRSALYDDVTRMIKLKQPAIAARIVAGVAASTTTKSLF", "soluble on expression in E. coli": "not soluble"}, {"sequence": "MLQSGEWAYTEKLKEHFESPKNVLQGNDTSAFDGVGMEGNLQCGDQMMVAIKVDKESEKITDCQWKTYGCASAIASTSILSEMVKGMTLDQAFNISPKEVAKELGGLPENKIHCSVLGDKALRAAINDYFIRNGMSDRVQKVQARTVCQCMNVTDHDIEEAVLEGARTFYELQEHTKISTVCGQCREDAENELQKYIHLHFGS", "soluble on expression in E. coli": "soluble"}, {"sequence": "MLRDKSVNLDDGDPFTIALFGVDSNAERNANGGGQRSDTIMVLSVNPEKKTTEIVSIPRDTQADIVGKGTTEKINHAYAYGGPDMAVKSLEKLLNVPIDHYATIDMDGMQDMIDTVGGITVTSNATFSYDGYQFTEGERSKMDGKEAMAFIRSRKEDGAGGDFGRQERQQLVIQGLANKLTSVSSITHFNSLMNHVEDNVKTDLSVGELNKVRSNYKDANDNVNRHQLEGQGGIQDDGLYYFVPSENSLNEIETNVKDNLGILEHHHHHH", "soluble on expression in E. coli": "soluble"}, {"sequence": "MLRIVLARSSRAMSSASPASASDSDTSVRKIGKALETYLKHSQQHVAMMEKHRAEFETGRRHLAKMMSLDIHELDQEAIDRAILYLFPSGLTDPNARPVMRPPDEILPKFQRFTFDEEGKPEGSRFFTLSPKIYGLLSDIGVKTHSVMKFYDEHVGSRSVNRSDLEPANLSGSQWVTADKLKKKLSEKFSKELYGQVIIAFEHLASLPGSAIEQKFLMEFREPMTASTGSKLFGPAIPEVHVCAVTNRRYAEVTTRCKDTRATVKVTDAGKGKFDIDGLQLHDFRHLQAREILLAPMIVSQSLGRFDVTATTSCISNTLPEAPNKAPLMRSGGMSALPRAVRHGTALCVAALQPEAIEPLRLSGLLTLDPRKNERSKVNQPGARAKWIWKRR", "soluble on expression in E. coli": "not soluble"}, {"sequence": "MLRRDFLKLLAAATTIAATGPVMAACSRDDNSATSGKAATDTIRIAAIGGPGEGLNINEAMSTATWAAMYAVYESLVIAGDSAPAFQLAKSVEPNKDATMWTVTLRDAPLFSDGSPVTAADVVASLKVVAKNPMRGMTYADVDVDKLKAIDDSTVEIHLTRPRADFVDAVLGVNSLVYKNGDPGTTIGSGPYVVESGDSGQGWKLAANEHFPTDRRISQSLEIQVIADADARLRAVDSGAVDLAMDLPATAARSLKNAQAWIPGPADSKALLFVLNTAVAPFNDAEVRRAVKISLDRKAMVDVALDGAGTVGADIPGFGFKDYPEGISEVRRDLDAARQIFKDKGIKELTLVTADFTPGMNDGADIAAKQLADAGVKVTVEKRDPTTYFADMAALRALPFFASYIVNRSLQSALPFMTGSHAMFNLSGFGTSGDWDKRLAAAQAETNDSQRAALLKKLAVEMQRDGGDVLWGYANEVHGRADGIPDVPVSQSVPVPTTK", "soluble on expression in E. coli": "not soluble"}, {"sequence": "MLRRGLSRPEPRLLSKRYLSSATGGGSAGTTEGGSSETTPLRPRPNALTDEIIRVDHAGELGADRIYAGQMAILGNGPLGKTIGHMWEQEKEHRKQFEQLIQQHRVRPTIMTPIWNVAGFVLGAGTALMGEKAAMACTVAVETVIVEHYNDQLRQIMEAPNPDKELLATITKFRDEEQEHHDTGIDHGAEQAPFYQAMTEVIKFGCKTAIAISKKILEHHHHHH", "soluble on expression in E. coli": "not soluble"}, {"sequence": "MLRRQMSFNGKSDMGILYLVPTPIGNLEDMTFRAIDTLKSVDAIAAEDTRQTKKLCHVYEIETPLVSYHEHNKESSGHKIIEWLKSGKNIALVSDAGLPTISDPGAEIVKDFTDIGGYVVPLPGANAALTALIASGIVPQPFFFYGFLNRQKKEKKKELEALKKRQETIIFYEAPHRLKETLSAMAEILGDREIAVTRELTKKYEEFIRGTISEVIGWANEDQIRGEFCLVVEGSNNEEVDEEEQWWETLTAKEHVEHYISKGATSKEAIKKAAVDRNVPKREVYDAYHIKQ", "soluble on expression in E. coli": "soluble"}, {"sequence": "MLRSIICNMCNLSDESKQFEMTPPSSNLSSLFPTGRAVRNPFGKVYFVVILKGKAMVRIDGKSMLLLERTFLFLPPGHLLLRLSCTQDFLFQYLSFSFDFLSDFPLLLKADISNQVTNAPCLPMSPEDFSLIKMYYHFIYHRYLDAECPSEVIKGMLFSLVLEVCRMYSGRNISVEMSRQDKLVDGFFSLLHKYCTQERMAAFYASRLCISDKYLMRSIKKQTGQTFHYWMADFILREAKLMLRSTDLSVTEIADKLSFPNSSSFARFFRKYTGFSPVQFRNEA", "soluble on expression in E. coli": "not soluble"}, {"sequence": "MLRTAGRDGLCRLSTYLEELEAVELKKFKLYLGTATELGEGKIPWGSMEKAGPLEMAQLLITHFGPEEAWRLALSTFERINRKDLWERGQREDLVRDTPPGGPSSLGNQSTCLLEVSLVTPRKDPQETYRDYVRRKFRLMEDRNARLGECVNLSHRYTRLLLVKEHSNPMQVQQQLLDTGRGHARTVGHQASPIKIETLFEPDEERPEPPRTVVMQGAAGIGKSMLAHKVMLDWADGKLFQGRFDYLFYINCREMNQSATECSMQDLIFSCWPEPSAPLQELIRVPERLLFIIDGFDELKPSFHDPQGPWCLCWEEKRPTELLLNSLIRKKLLPELSLLITTRPTALEKLHRLLEHPRHVEILGFSEAERKEYFYKYFHNAEQAGQVFNYVRDNEPLFTMCFVPLVCWVVCTCLQQQLEGGGLLRQTSRTTTAVYMLYLLSLMQPKPGAPRLQPPPNQRGLCSLAADGLWNQKILFEEQDLRKHGLDGEDVSAFLNMNIFQKDINCERYYSFIHLSFQEFFAAMYYILDEGEGGAGPDQDVTRLLTEYAFSERSFLALTSRFLFGLLNEETRSHLEKSLCWKVSPHIKMDLLQWIQSKAQSDGSTLQQGSLEFFSCLYEIQEEEFIQQALSHFQVIVVSNIASKMEHMVSSFCLKRCRSAQVLHLYGATYSADGEDRARCSAGAHTLLVQLPERTVLLDAYSEHLAAALCTNPNLIELSLYRNALGSRGVKLLCQGLRHPNCKLQNLRLKRCRISSSACEDLSAALIANKNLTRMDLSGNGVGFPGMMLLCEGLRHPQCRLQMIQLRKCQLESGACQEMASVLGTNPHLVELDLTGNALEDLGLRLLCQGLRHPVCRLRTLWLKICRLTAAACDELASTLSVNQSLRELDLSLNELGDLGVLLLCEGLRHPTCKLQTLRLGICRLGSAACEGLSVVLQANHNLRELDLSFNDLGDWGLWLLAEGLQHPACRLQKLWLDSCGLTAKACENLYFTLGINQTLTDLYLTNNALGDTGVRLLCKRLSHPGCKLRVLWLFGMDLNKMTHSRLAALRVTKPYLDIGC", "soluble on expression in E. coli": "soluble"}, {"sequence": "MLRTICKQHTALPDKSIRKLEKIAEGLTVLSKLLKADIFIDCPTGINDAAIVVAEANPETGSSYTQSVVGQYAYRKNEPAVLRTLETGLPSRDYKALTQENTLVRQNVVPIKNEKEEVIGVLIVEEGSNDTGLNKELNFLHDATNELLRSSMEMTKEQKIIDYINDGIIIFNEKGILIYANSKAKNIYKKIGYKHNILGTKFSNIVLNNIAFKDVLDGIIPGSSDIHIAKMDLNIHYYLIKESKNVKNVVLFIKDLTEIKEKEKELILKSVAIKEIHHRVKNNLQTIASLLRIQARKTEDEAVRQAFNESINRILSIAVTHEILAQNGLDDLKIKEMFSKILKNSIRASIGENLDLKTSISGDDFKINSDKSTSIALIANELVQNSITHGFKGMTSGKIDITVKQGKIKSKVTIADNGVGFKSKDFKNESLGLQIVKSLVKEKLFGTIDIKSTKNGTIIVFDFEN", "soluble on expression in E. coli": "not soluble"}]}]}
